The target in series [1] is rGrh (Grainyhead, full-length recombinant) (UniProt P13002-2 1-1032). The experiment in a line: EMSA.
For series [2], the target named is rZld (Zelda, full-length recombinant) (UniProt Q9VWC6 1-1596). The series can be described thus: EMSA. (In general: A gel shift assay detects complexes by their altered migration in electrophoresis.)

This is an account of results in paper PMC2927720.

rZld (Zelda, full-length recombinant), sequence (Q9VWC6 whole entry): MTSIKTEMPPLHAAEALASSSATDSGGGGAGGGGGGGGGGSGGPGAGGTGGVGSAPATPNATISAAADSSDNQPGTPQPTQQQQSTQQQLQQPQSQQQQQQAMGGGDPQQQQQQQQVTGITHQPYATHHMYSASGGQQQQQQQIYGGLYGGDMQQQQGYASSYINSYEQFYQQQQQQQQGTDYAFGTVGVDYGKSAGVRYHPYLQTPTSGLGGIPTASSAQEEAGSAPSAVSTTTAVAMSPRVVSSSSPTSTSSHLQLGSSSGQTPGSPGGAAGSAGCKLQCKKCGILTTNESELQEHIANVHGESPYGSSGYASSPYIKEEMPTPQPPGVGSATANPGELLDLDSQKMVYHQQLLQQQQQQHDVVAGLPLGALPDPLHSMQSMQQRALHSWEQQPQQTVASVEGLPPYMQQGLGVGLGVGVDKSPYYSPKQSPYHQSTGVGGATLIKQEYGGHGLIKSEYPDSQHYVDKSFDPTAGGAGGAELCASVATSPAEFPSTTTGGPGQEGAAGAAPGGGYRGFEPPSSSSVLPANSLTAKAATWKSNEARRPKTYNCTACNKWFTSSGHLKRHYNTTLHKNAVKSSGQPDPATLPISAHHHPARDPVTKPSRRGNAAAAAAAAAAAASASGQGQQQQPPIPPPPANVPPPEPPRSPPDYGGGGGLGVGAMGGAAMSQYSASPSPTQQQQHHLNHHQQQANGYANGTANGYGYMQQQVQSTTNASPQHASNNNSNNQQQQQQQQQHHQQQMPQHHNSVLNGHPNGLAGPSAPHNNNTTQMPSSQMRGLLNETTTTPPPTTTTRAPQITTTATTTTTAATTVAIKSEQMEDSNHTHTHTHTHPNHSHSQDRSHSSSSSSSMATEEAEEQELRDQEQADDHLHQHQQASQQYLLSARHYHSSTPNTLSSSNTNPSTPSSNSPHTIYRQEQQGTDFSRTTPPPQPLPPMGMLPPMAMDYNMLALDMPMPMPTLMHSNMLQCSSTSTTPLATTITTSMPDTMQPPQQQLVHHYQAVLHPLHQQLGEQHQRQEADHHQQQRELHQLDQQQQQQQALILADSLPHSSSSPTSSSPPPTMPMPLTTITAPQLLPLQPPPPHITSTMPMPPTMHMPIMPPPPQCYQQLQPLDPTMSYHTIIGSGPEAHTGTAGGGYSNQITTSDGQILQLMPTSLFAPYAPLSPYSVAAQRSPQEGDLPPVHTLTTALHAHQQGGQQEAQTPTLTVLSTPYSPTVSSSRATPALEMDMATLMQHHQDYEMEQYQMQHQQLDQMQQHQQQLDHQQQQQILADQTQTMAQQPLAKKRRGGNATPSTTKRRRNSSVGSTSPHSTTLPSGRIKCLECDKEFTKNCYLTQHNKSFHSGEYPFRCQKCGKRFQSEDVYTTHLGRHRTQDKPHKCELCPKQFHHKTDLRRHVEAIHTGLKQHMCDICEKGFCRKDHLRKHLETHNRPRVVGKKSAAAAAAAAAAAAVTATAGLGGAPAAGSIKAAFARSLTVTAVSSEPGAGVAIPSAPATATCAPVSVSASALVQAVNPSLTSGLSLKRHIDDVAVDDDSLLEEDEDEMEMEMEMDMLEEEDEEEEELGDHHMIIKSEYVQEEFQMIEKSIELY

B1: CAGGTAG probe (dsDNA)
DNA 1: CTATTCAGGTAGACACTGTA
DNA 2: TACAGTGTCTACCTGAATAG
Turning to B1, the binding result in series [1] and in series [2] was “binds” throughout.

B2: CAGGCAG probe (dsDNA)
DNA 1: CTATTCAGGCAGACACTGTA
DNA 2: TACAGTGTCTGCCTGAATAG
As to B2, the binding result in series [1] is on record as “binds”.
